For the test, the target named is SARS-COV-2 Wuhan WT Spike_del18 on VSV-delG pseudotyped particles (SARS-COV-2) (UniProt P0DTC2). Briefly: cell-based or functional assay.

For “VHH72-5mut-Fc (VHH72_h1_E1D_R27L_E31D_Y32I_S56G_L97A-10xGS-hIgG1_EPKSCdel_LALA_K447del) (Fc fusion)”, the potency of neutralization against D72-53 worked out at 2.5 times.

Values taken from patent publication US20240228596A1.
